Positions count from the first letter of the chain named. “Also recorded” adds a separate entry of the source.
How the values were obtained:
[1] = biological target: T1, wild-type AtzA protein (Pseudomonas sp., UniProt P72156); experiment: substrate range of wild-type AtzA protein; type: biochemical, Pseudomonas sp. strain ADP
T1 construct: made in house; host or cells: E. coli
Text: Enzyme Kinetics. […] HPLC analysis was done as described above.

[2] = system: E. coli DH5α (pMD1 or pMD2); experiment: effect of ammonium chloride on atrazine degradation, E. coli clones; type: cell-based
Text: (§1) Therefore, it was not necessary to use media free of exogenous ammonia in the screening assays.

[3] = system: Pseudomonas species strain ADP; experiment: effect of ammonium chloride on atrazine clearing on solid media, Pseudomonas; type: cell-based; conditions: solid media with 500 ppm atrazine, 2 weeks, 28° C. or 37° C.
Text: as §1

[4] = TERBUTHYLAZINE-degrading activity of AtzA homologs; type: biochemical; conditions: compared with wild-type enzyme
Description: TERBUTHYLAZINE was incorporated in solid LB medium at a final concentration of about 400-500 μg/ml to produce an opaque suspension of sample particles in the clear agar. […] HPLC analysis was performed with a Hewlett Packard HP 1090 Liquid Chromatograph system equipped with a photodiode array detector and interfaced to an HP 79994A Chemstation. TERBUTHYLAZINE and its metabolites were resolved by using an analytical C^18 reverse-phase Nova-Pak HPLC column (4 μm-diameter spherical packing, 150 by 3.9 mm; Waters Chromatography, Milford, Mass.) and an acetonitrile (ACN) gradient, in water, at a flow rate of 1.0 ml min^−1. Linear gradients of 0 to 6 min, 10 to 25% ACN; 6 to 21 min, 25 to 65% ACN; 21 to 23 min, 65 to 100% ACN; and 23 to 25 min, 100% ACN were used. Spectral data of the column eluent were acquired between 200 and 400 nm (12-nm bandwidth per channel) at a sampling frequency of 640 ms. Spectra were referenced against a signal of 500 nm.
Sample 1 is a control sample without enzyme. […] Sample 3 employed the T7 homolog (SEQ ID NO:6) and Sample 4 employed the A7 homolog (SEQ ID NO:5). Results were determined by HPLC as described above. FIG. 8(a) provides the percentage of TERBUTHYLAZINE remaining after a 15 minute exposure to homologs A7, A11, and T7. Samples 1-10 refer to the effect of homolog activity in the presence of 50 uM of: Manganese (1); Mangnesium (2), EDTA (3); cobalt (4); zinc (5); iron (6); copper (7); nickel (8); no metal (9); or no eznyme (10). FIG. 8(b) provides the relative amount of hydroxyterbuthylazine as a measure of TERBUTHYLAZINE degradation for homologs A7 (solid bar), A11 (hatched bar), or T7 (open bar) in the presence or absence of additives 1-10 (supra).

[5] = atrazine-degrading activity of AtzA homologs compared with wild type; conditions: compared with wild-type AtzA or parent homolog
Description: Serial dilutions of the transformation reaction were plated onto LB plates containing 50 μg/ml ampicillin, the remainder of the transformation was stored in 25% glycerol and frozen at −80° C.
Environ. Microbiol., 61, 1451-1457 (1995), at a final concentration of 500 μg/ml to produce an opaque suspension of small particles in the clear agar. […] Positive colonies that most rapidly formed the largest clear zones were selected initially for further analysis. The (approximately) 40 best colonies were picked, pooled, grown in the presence of 50 μg/ml ampicillin and plasmid prepared from them.
Enzyme Kinetics. […] The reactions were stopped by boiling the reaction tubes at specific times, the addition of 500 μl acetonitrile and rapid freezing at −80° C. Thawed samples were centrifuged at 14,000 rpm for 10 minutes, the supernatants were filtered through a […] filter, and placed into crimp-seal HPLC vials. HPLC analysis was done as described above.

T1 sequence (P72156 whole entry): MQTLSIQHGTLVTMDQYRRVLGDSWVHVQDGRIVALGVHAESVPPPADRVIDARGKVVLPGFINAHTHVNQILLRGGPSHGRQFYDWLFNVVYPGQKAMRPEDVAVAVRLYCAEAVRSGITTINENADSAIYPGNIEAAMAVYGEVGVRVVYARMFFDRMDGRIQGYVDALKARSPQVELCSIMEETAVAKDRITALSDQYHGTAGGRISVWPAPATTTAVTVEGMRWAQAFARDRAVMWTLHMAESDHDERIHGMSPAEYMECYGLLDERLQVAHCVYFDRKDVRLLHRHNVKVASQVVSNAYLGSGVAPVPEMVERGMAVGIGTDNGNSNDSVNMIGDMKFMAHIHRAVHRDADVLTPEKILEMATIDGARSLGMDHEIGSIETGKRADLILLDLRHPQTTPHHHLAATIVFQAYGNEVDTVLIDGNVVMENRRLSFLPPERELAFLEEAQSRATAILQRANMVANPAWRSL

Molecule: CCNc1nc(Cl)nc(NCC)n1 [SIMAZINE, 2-chloro-4,6-diethylamino-s-triazine]
- degradation of substrate by wild-type AtzA protein (in words) [1]: acts on

Molecule: CCNc1nc(Cl)nc(NC(C)C)n1 [atrazine, 2-chloro-4-(ethylamino)-6-(isopropylamino)-1,3,5-triazine]
- degradation of substrate by wild-type AtzA protein (in words) [1]: acts on

Molecule: CC(C)Nc1nc(N)nc(Cl)n1 [desethylatrazine, 2-chloro-4-amino-6-isopropylamino-s-triazine]
- degradation of substrate by wild-type AtzA protein (in words) [1]: acts on

Molecule: Nc1nc(N)nc(N)n1 [MELAMINE, 2,4,6-triamino-s-triazine]
- degradation of substrate by wild-type AtzA protein (in words) [1]: did not degrade

Molecule: Nc1nc(N)nc(Cl)n1 [Desethyldesisopropylatrazine, 2-chloro-4,6-diamino-s-triazine]
- degradation of substrate by wild-type AtzA protein (in words) [1]: did not degrade

Molecule: CCNc1nc(N)nc(Cl)n1 [Desisopropylatrazine, 2-chloro-4-ethylamino-6-amino-s-triazine]
- degradation of substrate by wild-type AtzA protein (in words) [1]: acts on

Molecule: CCNc1nc(Cl)nc(NC(C)(C)C)n1 [TERBUTHYLAZINE, 2-chloro-4-(ethylamino)-6-(tertiarybutyl-amino)-1,3,5-triazine]
- degradation of substrate by wild-type AtzA protein (in words) [1]: only poorly degraded

Molecule: Cl.N [ammonium chloride]
- ammonium chloride tolerance relative to wild type ([2]; E. coli clones vs Pseudomonas strain ADP): 40-80 fold
- effect of inorganic nitrogen source on atrazine degradation (in words) ([2]; atzA fragments expressed in E. coli): unaffected
- ammonium chloride concentration at which atrazine degradation was still observed ([2]; solid media with atrazine): ≤ 48 mM
- ammonium chloride concentration sufficient to inhibit visible clearing [3]: 0.6 to 1.2 mM

B1: A7: AtzA homolog, gene SEQ ID NO:3, protein SEQ ID NO:5 (protein)
chain: ASMVTLTPLFSFSLLNCTRKASRSVMSASSWLVTCGMTTQLRCRFFDGIISALRRVTHYWRHIMQTLSIQHGTLVTMDQYRRVLGDSWVHVQDGRIVALGVHAESVPPPADRVIDARGKVVLPGFINAHTHVNQILLRGGPSHGRQFYDWLFNVVYPGQKAMRPEDVAVAVRLYCAEAVRSGITTINENADSAIYPGNIEAAMAVYGEVGVRVVYARMFFDRMDGRIQGYVDALKARSPQVELCSIMEGTAVAKDRITALSDQYHGTAGGRISVWPAPATTTAVTVEGMRWAQAFARDRAVMWTLHMAESDHDERIHGMSPAEYMECYGLLDERLQVAHCVYFDRKDVRLLHRHNVKVASQVVSNAYLGSGVAPVPEMVERGMAVGIGTDNGNSNDSVNMIGDMKFMAHIHRAVHRDADVLTPEKILEMATIDGARSLGMDHEIGSIETGKRADLILLDLRHPQTTPHHHLAATIVFQAYGNEVDTVLIDGNVVMENRRLSFLPPERELAFLEEAQSRATAILQRANMVANPAWRSLEMTPLLHPPPLEEIAAILARLGLGGGHDLDGYRIAMNAALPSFARVESLVGEGRLRAPASRRSE
- TERBUTHYLAZINE degradation activity (in words) [4]: better than the wild-type enzyme; also recorded: enhanced TERBUTHYLAZINE degradation activity
- atrazine degradation activity (in words) [5]: enhanced atrazine degradation activity

B2: A40: AtzA homolog, nucleic acid SEQ ID NO:17, amino acid SEQ ID NO:22 (protein)
chain: MQTLSIQHGTLVTMDQYRRVLGDSWVHVQDGRIVALGVHAKSVPPPADRVIDARGKVVLPGFINAHTHVNQILLRGGPSHGRQFYDWLFNVVYPGQKAMRPEDVAVAVRLYCAEAVRSGITTINENADSAIYPGNIEAAMAVYGEVGVRVVYARMFFDRMDGRIQGYVDALKARSPQVELCSIMEETAVAKDRITALSDQYHGTAGGRISVWPAPATTTAVTVEGMRWAQAFARDRAVMWTLHMAESDHDGRIHGMSPAEYMECYGLLDERLQVAHCVYFDRKDVRLLHRHNVKVASQVVSNAYLGSGVAPVPEMVERGMAVGIGTDNGNSNDSVNMIGDMKFMAHIHRAVHRDADVLTPEKILEMATIDGARSLGMDHEIGSIETGKRADLILLDLRHPQTTPHHHLAATIVFQAYGNEVDTVLIDGNVVMENRCLSFLPPERELAFLEGAQSRATAILQRANMVANPAWRSLEMTPLLHPPPLEEIAAILARLG
- atrazine degradation activity (in words) [5]: improved rate of catalytic activity

B3: A42: AtzA homolog, nucleic acid SEQ ID NO:18, amino acid SEQ ID NO:23 (protein)
chain: B2 chain with K41E, G251E, Y265H, V322M, C436R, G451E
- TERBUTHYLAZINE degradation activity (in words) [4]: capable of better degrading
- atrazine degradation activity (in words) [5]: improved rate of catalytic activity

B4: A60: AtzA homolog, nucleic acid SEQ ID NO:21, amino acid SEQ ID NO:26 (protein)
chain: B2 chain with K41E, G162R, G251E, V285I, V299A, C436R, G451E, R494Q
- TERBUTHYLAZINE degradation activity (in words) [4]: capable of better degrading
- atrazine degradation activity (in words) [5]: improved rate of catalytic activity

B5: A46: AtzA homolog, nucleic acid SEQ ID NO:20, amino acid SEQ ID NO:25 (protein)
chain: B2 chain with K41E, R49Q, Y85H, C436R, G451E
- TERBUTHYLAZINE degradation activity (in words) [4]: capable of better degrading
- atrazine degradation activity (in words) [5]: improved rate of catalytic activity

B6: A44: AtzA homolog, nucleic acid SEQ ID NO:19, amino acid SEQ ID NO:24 (protein)
chain: B2 chain with K41E, G251E, C436R, G451E, P483L
- TERBUTHYLAZINE degradation activity (in words) [4]: capable of better degrading
- atrazine degradation activity (in words) [5]: improved rate of catalytic activity

B7: T7: AtzA homolog, gene SEQ ID NO:4, protein SEQ ID NO:6 (protein)
chain: SAATAALIMKASMVTLTPLFSFSLLNCTRKASRSVMSASSWLVTCGMTTQLRCRFFDGVISALRRVTHYWRHIMQTLSIQHGTLVTMDQYRRVLGDSWVHVQDGRIVALGVHAESVPPPADRVIDARGKVVLPGFINAHTHVNQILLRGGPSHGRQFYDWLFNVVYPGQKAMRPEDVAVAVRLYCAEAVRSGITTINENADSAIYPGNIEAAMAVYGEVGVRVVYARMFFDRMDGRIQGYVDALKARSPQVELCSIMEETAVAKDRITALSDQYHGTAGGRISVWPAPATTTAVTVEGMRWAQAFARDRAVMWTLHMAESDHDERIHGMSPADYMECYGLLDERLQVAHCVYFDRKDVRLLHRHNVKVASQVVSNAYLGSGVAPVPEMVERGMAVGIGTDNGNSNDSVNMIGDMKFMAHIHRAVHRDADVLTPEKILEMATIDGARSLGMDHEIGSIETGKRADLILLDLRHPQTTPHHHLAATIVFQAYGNEVDTVLIDGNVVMENRRLSFLPPERELAFLEEAQSRATAILQRANMVANPAWRSLEMTPLLHPPPLEEIAAILARLGLGGGHDLDGYRIAMNAALPSFARVESLVGEGRLRAPASRRSERPE
- TERBUTHYLAZINE degradation activity (in words) [4]: better than the wild-type enzyme; also recorded: enhanced TERBUTHYLAZINE degradation activity
- atrazine degradation activity (in words) [5]: enhanced atrazine degradation activity
